The record followed here is publication PMC3149027, “Structural and functional basis for RNA cleavage by Ire1”.

Series [1] deals with Ire1KR32 (wild type) (yeast).
Series [2] deals with T1, Ire1KR32 (Saccharomyces cerevisiae? ("yeast"), UniProt P32361 641-1115).
T1 sequence: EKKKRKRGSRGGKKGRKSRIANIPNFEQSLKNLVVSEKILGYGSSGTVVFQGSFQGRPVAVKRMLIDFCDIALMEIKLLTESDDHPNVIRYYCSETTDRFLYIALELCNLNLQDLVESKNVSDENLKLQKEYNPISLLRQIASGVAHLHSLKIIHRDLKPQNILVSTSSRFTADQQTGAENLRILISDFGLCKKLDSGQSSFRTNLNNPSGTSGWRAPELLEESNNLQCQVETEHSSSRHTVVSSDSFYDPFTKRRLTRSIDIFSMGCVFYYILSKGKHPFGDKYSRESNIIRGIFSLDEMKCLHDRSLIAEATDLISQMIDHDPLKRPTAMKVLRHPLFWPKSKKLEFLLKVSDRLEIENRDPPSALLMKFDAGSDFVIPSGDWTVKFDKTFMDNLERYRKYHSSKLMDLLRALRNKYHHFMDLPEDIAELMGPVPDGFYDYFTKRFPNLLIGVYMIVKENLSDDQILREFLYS
Description: competition (inhibition of 32P-HP21 cleavage); apparent Ki; 2 mM Mg2+, 2 mM ADP, 3 uM Ire1KR32; 20 mM HEPES pH 7.4, 70 mM NaCl, 5% glycerol, 2 mM Mg(CH3COO)2, 2 mM ADP, 4 mM DTT, 30 C. The note with it: protein: recombinant; tags: GST removed with Prescission protease; label: none; single strand.

Ire1KR32(H1061N) (domain or fragment) showed an RNase activity (single-turnover cleavage of 32P-HP21) of 1.5 μM wild-type Ire1KR32 titrated with 0.1-15 μM Ire1KR32(H1061N); in trans activation, inhibition at excessive H1061N in series [1] of 10 fold.

For CCGCAG (ssDNA, 2'-deoxy throughout) [dCdCdGdCdAdG (2'-deoxy-CCGCAG)], in series [2], the Ki worked out at 200 ± 50 µM.
